This test concerns the target PD-1 (human). In words: cell-based or functional assay.

We go through 41 substances from patent US20200040059A1.

Take “PD-L2 IgV-Fc H15Q, N32D, S67L, V89D (Fc fusion)”: the Fold increase over wildtype PD-L2 IgV-Fc, MLR IFN gamma is 0.93 fold and the IFN gamma levels pg/mL, MLR came to 1290 pg/mL.
Substance “PD-L2 IgV-Fc H15Q, T47A, Q82R (Fc fusion)” gave a Fold increase over wildtype PD-L2 IgV-Fc, MLR IFN gamma of 0.96 fold and an IFN gamma levels pg/mL, MLR of 1320 pg/mL.
The like results for PD-L2 IgV-Fc V89D (Fc fusion) were, in that order, 0.85 fold and 1170 pg/mL.
In the case of “PD-L2 IgV-Fc H15Q, L33H, S67L, R76G, Q82R, V89D (Fc fusion)”, the Fold increase over wildtype PD-L2 IgV-Fc, MLR IFN gamma turned out to be 1.09 fold and the IFN gamma levels pg/mL, MLR is 1500 pg/mL.
The corresponding values for “PD-L2 IgV-Fc I13V, S67L, V89D (Fc fusion)” are 0.63 fold and 868 pg/mL.
In turn, “PD-L2 IgV-Fc H15Q, R76G, I85F (SEQ ID NO 1500) (Fc fusion)” displayed a Fold increase over wildtype PD-L2 IgV-Fc, MLR IFN gamma of 1.25 fold and an IFN gamma levels pg/mL, MLR of 1730 pg/mL.
The corresponding values for “PD-L2 IgV-Fc I13V, S67L, Q82R, V89D (Fc fusion)” are 1 fold and 1370 pg/mL.
For “PD-L2 IgV-Fc I13V, H15Q, V31A, N45S, Q82R, V89D (Fc fusion)”, the Fold increase over wildtype PD-L2 IgV-Fc, MLR IFN gamma was found to be 1.25 fold and the IFN gamma levels pg/mL, MLR turned out to be 1720 pg/mL.
“PD-L2 IgV-Fc H15Q, T47A, H69L, Q82R, V89D (Fc fusion)” gave a Fold increase over wildtype PD-L2 IgV-Fc, MLR IFN gamma of 1.26 fold and an IFN gamma levels pg/mL, MLR of 1730 pg/mL.
Substance “PD-L2 IgV-Fc H15Q, T47A, Q72H, R76G, I86T (Fc fusion)” came in with a Fold increase over wildtype PD-L2 IgV-Fc, MLR IFN gamma of 1.16 fold and an IFN gamma levels pg/mL, MLR of 1600 pg/mL.
Regarding “PD-L2 IgV-Fc H15Q, V31M, S67L, Q82R, V89D (Fc fusion)”, the Fold increase over wildtype PD-L2 IgV-Fc, MLR IFN gamma was determined as 0.88 fold and the IFN gamma levels pg/mL, MLR was found to be 1210 pg/mL.
The like results for “PD-L2 IgV-Fc H15Q, N24S, T47A, Q72H, R76G, V89D (Fc fusion)” were, in that order, 0.79 fold and 1090 pg/mL.
The like results for “PD-L2 IgV-Fc I13V, H15Q, T47A, Q82R, V89D (SEQ ID NO 1545) (Fc fusion)” were, in that order, 1.26 fold and 1740 pg/mL.
The corresponding values for PD-L2 IgV-Fc Q82R, V89D (Fc fusion) are 1.17 fold and 1620 pg/mL.
In turn, “PD-L2 IgV-Fc H15Q, S67L, Q72H, R76G, V89D (Fc fusion)” gave a Fold increase over wildtype PD-L2 IgV-Fc, MLR IFN gamma of 0.77 fold and an IFN gamma levels pg/mL, MLR of 1060 pg/mL.
“PD-L2 IgV-Fc I13V, H15Q, T47A, R76G, V89D (Fc fusion)” showed a Fold increase over wildtype PD-L2 IgV-Fc, MLR IFN gamma of 0.91 fold and an IFN gamma levels pg/mL, MLR of 1250 pg/mL.
The like results for “PD-L2 IgV-Fc I13V, Q72H, R76G, I86T (Fc fusion)” were, in that order, 1.42 fold and 1950 pg/mL.
For “PD-L2 IgV-Fc I13V, H15Q, L33F, T47A, Q82R, V89D (Fc fusion)”, the Fold increase over wildtype PD-L2 IgV-Fc, MLR IFN gamma is 1.07 fold and the IFN gamma levels pg/mL, MLR stood at 1470 pg/mL.
For the substance “PD-L2 IgV-Fc H15Q, T47A, K65R, S67L, Q82R, V89D (Fc fusion)”, the Fold increase over wildtype PD-L2 IgV-Fc, MLR IFN gamma was determined as 0.97 fold and the IFN gamma levels pg/mL, MLR turned out to be 1340 pg/mL.
The like results for “PD-L2 IgV-Fc I13V, E44D, Q82R, V89D (Fc fusion)” were, in that order, 0.73 fold and 1010 pg/mL.
“PD-L2 IgV-Fc H15Q, Q72H, V89D (Fc fusion)” registered a Fold increase over wildtype PD-L2 IgV-Fc, MLR IFN gamma of 0.92 fold and an IFN gamma levels pg/mL, MLR of 1270 pg/mL.
The like results for “PD-L2 IgV-Fc H15Q, C23S, I86T (Fc fusion)” were, in that order, 1.34 fold and 1850 pg/mL.
The corresponding values for PD-L2 IgV-Fc H15Q, K65R (Fc fusion) are 1.1 fold and 1510 pg/mL.
The like results for “PD-L2 IgV-Fc I13V, H15Q, T47A, Q82R, V89D (SEQ ID NO 1544) (Fc fusion)” were, in that order, 1.05 fold and 1450 pg/mL.
For PD-L2 IgV-Fc H15Q, T47A (Fc fusion), the Fold increase over wildtype PD-L2 IgV-Fc, MLR IFN gamma was found to be 1.19 fold and the IFN gamma levels pg/mL, MLR was found to be 1640 pg/mL.
The corresponding values for “PD-L2 IgV-Fc G28V, Q72H, R76G, I86T (Fc fusion)” are 1.29 fold and 1780 pg/mL.
As for PD-L2 IgV-Fc S67L, V89D (Fc fusion), the Fold increase over wildtype PD-L2 IgV-Fc, MLR IFN gamma was 0.89 fold and the IFN gamma levels pg/mL, MLR came to 1230 pg/mL.
The corresponding values for “PD-L2 IgV-Fc I13V, H15Q, S67L, I86T (Fc fusion)” are 0.74 fold and 1010 pg/mL.
The corresponding values for “PD-L2 IgV-Fc I13V, H15Q, E44D, V89D (Fc fusion)” are 1.01 fold and 1380 pg/mL.
In turn, Wild Type PD-L2 IgV (Fc fusion) returned an IFN gamma levels pg/mL, MLR of 1380 pg/mL.
For PD-L2 IgV-Fc S67L, I86T (Fc fusion), the Fold increase over wildtype PD-L2 IgV-Fc, MLR IFN gamma was 0.74 fold and the IFN gamma levels pg/mL, MLR was found to be 1020 pg/mL.
The like results for “PD-L2 IgV-Fc I13V, S39I, E44D, Q82R, V89D (Fc fusion)” were, in that order, 0.68 fold and 936 pg/mL.
The like results for “PD-L2 IgV-Fc I13V, H15Q, E44V, T47A, Q82R, V89D (Fc fusion)” were, in that order, 0.92 fold and 1270 pg/mL.
The corresponding values for “PD-L2 IgV-Fc I13V, H15Q, I36V, T47A, S67L, V89D (Fc fusion)” are 0.99 fold and 1360 pg/mL.
For the substance “PD-L2 IgV-Fc H15Q, R76G, I85F (SEQ ID NO 1505) (Fc fusion)”, the Fold increase over wildtype PD-L2 IgV-Fc, MLR IFN gamma is 1.04 fold and the IFN gamma levels pg/mL, MLR stood at 1440 pg/mL.
The like results for “PD-L2 IgV-Fc H15Q, Q72H, Q74R, R76G, I86T (Fc fusion)” were, in that order, 0.68 fold and 934 pg/mL.
The like results for “PD-L2 IgV-Fc I12V, I13V, H15Q, T47A, Q82R, V89D (Fc fusion)” were, in that order, 1.11 fold and 1530 pg/mL.
The corresponding values for “PD-L2 IgV-Fc F2L, H15Q, D46E, T47A, Q72H, R76G, Q82R, V89D (Fc fusion)” are 0.85 fold and 1170 pg/mL.
In turn, “PD-L2 IgV-Fc H15Q, T47A, S67L, R76G, Q82R, V89D (Fc fusion)” returned a Fold increase over wildtype PD-L2 IgV-Fc, MLR IFN gamma of 0.8 fold and an IFN gamma levels pg/mL, MLR of 1100 pg/mL.
The like results for “PD-L2 IgV-Fc I13V, H15Q, Q82R, V89D (Fc fusion)” were, in that order, 1.16 fold and 1600 pg/mL.
The corresponding values for PD-L2 IgV-Fc S67L, I85F (Fc fusion) are 0.93 fold and 1280 pg/mL.
